The record followed here is the Immune Epitope Database (IEDB).

For one assay, the target named is HLA-A*02:01. Description: IEDB peptide-MHC binding, purified MHC/competitive/radioactivity; filed as Kd, often an IC50 or EC50 that approximates it; ≥ and ≤ were set here for values at or beyond the usual limits of such assays.
The target in another assay is HLA-A*02:07. The description is as above.
[1] abbreviates: source organism: Hepatitis B virus.
[2] abbreviates: source organism: Hepatitis B virus adr4.
The mark [3] stands for this setting: source organism: Mycobacterium tuberculosis.

Regarding AAPLILSRI, the Kd with HLA-A*02:01 (source organism: Homo sapiens) is no less than 30 µM; in the assay with HLA-A*02:07 (source organism: Homo sapiens), 6.64 µM. For the sequence ALAETSYVKV, the Kd with HLA-A*02:07 (source organism: Homo sapiens) was no less than 23.3 µM. On to ALDVYNGLL, for which the Kd with HLA-A*02:01 (source organism: Homo sapiens) is 0.096 µM; with HLA-A*02:07 (source organism: Homo sapiens), 5.97 µM. As for CILESLFRA, the Kd in the assay with HLA-A*02:01 (source organism: Homo sapiens) turned out to be 0.068 µM; in the assay with HLA-A*02:07 (source organism: Homo sapiens) it was 6.48 µM. As for GMPEGDLVYV, in the assay with HLA-A*02:07 (source organism: Homo sapiens), the Kd came to 1.4 µM.

In the case of ILKEPVHGV, the Kd in the assay with HLA-A*02:07 (source organism: HIV-1 M:B_MN) is no less than 30 µM. For KLPQLCTEL, the Kd in the assay with HLA-A*02:07 (source organism: Human papillomavirus 16) is 2.66 µM.

For the sequence LLFFWLDRSV, the Kd in the assay with HLA-A*02:07 (source organism: Homo sapiens) was no less than 30 µM. On to LLPFVQWFV, for which the Kd in the assay with HLA-A*02:01 (setting [1]) amounted to 0.0086 µM; with HLA-A*02:07 (setting [1]), 0.088 µM.

With LLWKGEGAVV, the dissociation constant (Kd) with HLA-A*02:01 (source organism: HIV-1 M:B_MN) turned out to be 0.111 µM; with HLA-A*02:07 (source organism: HIV-1 M:B_MN), 4.15 µM. For the sequence LTDAVKVMDL, the Kd with HLA-A*02:01 (source organism: Homo sapiens) and with HLA-A*02:07 (source organism: Homo sapiens) was no less than 30 µM throughout. Consider LVPFVQWFV, for which the Kd with HLA-A*02:07 (setting [2]) stood at 2.53 µM. With NLDRSNDKV, the Kd in the assay with HLA-A*02:01 (source organism: Homo sapiens) and with HLA-A*02:07 (source organism: Homo sapiens) was no less than 30 µM each time. For QIPSYKKLI, the Kd with HLA-A*02:01 (source organism: Homo sapiens) and with HLA-A*02:07 (source organism: Homo sapiens) was no less than 30 µM in each case.

Turning to QLDPARDVL, in the assay with HLA-A*02:07 (setting [2]), the Kd is no less than 30 µM. As to RLPLVLPAV, the Kd with HLA-A*02:01 (setting [3]) was 0.0052 µM; with HLA-A*02:07 (setting [3]) it was 0.0089 µM. Turning to RMPEAAPPV, in the assay with HLA-A*02:07 (source organism: Homo sapiens), the Kd was 0.548 µM. SLDLASLIL: the Kd with HLA-A*02:01 (source organism: Homo sapiens) was 1.61 µM; in the assay with HLA-A*02:07 (source organism: Homo sapiens), 1.56 µM. On to SLDSWWTSV, for which the equilibrium dissociation constant (Kd) with HLA-A*02:01 (setting [1]) stood at 0.05 µM; in the assay with HLA-A*02:07 (setting [1]), 0.236 µM. Regarding TLPSWATEDT, the Kd with HLA-A*02:01 (source organism: Homo sapiens) and in the assay with HLA-A*02:07 (source organism: Homo sapiens) was no less than 30 µM in each case. On to WVDLRSLFL, for which the Kd was 16.7 µM in the assay with HLA-A*02:01 (source organism: HIV-1 M:B_MN) and no less than 26.9 µM with HLA-A*02:07 (source organism: HIV-1 M:B_MN). With YLDLALMSV, the Kd came out at 0.0056 µM with HLA-A*02:01 (setting [3]) and 0.044 µM with HLA-A*02:07 (setting [3]). In the case of YLQLVFGIEV, in the assay with HLA-A*02:07 (source organism: Homo sapiens), the Kd came out at 1.05 µM. On to YMDDVVLGV, for which, in the assay with HLA-A*02:07 (setting [1]), the Kd came out at 0.092 µM. For YTAFTIPSI, in the assay with HLA-A*02:07 (source organism: HIV-1 M:B_MN), the Kd was no less than 30 µM.
